Five molecules from patent publication US20260209373A1 (TIANJIN MEDICAL UNIVERSITY GENERAL HOSPITAL, published 2026) can be followed below.

Assay [1] deals with T1, human BAFFR on HEK-293T-BAFFR cells (human, UniProt Q96RJ3 1-184).
T1 sequence: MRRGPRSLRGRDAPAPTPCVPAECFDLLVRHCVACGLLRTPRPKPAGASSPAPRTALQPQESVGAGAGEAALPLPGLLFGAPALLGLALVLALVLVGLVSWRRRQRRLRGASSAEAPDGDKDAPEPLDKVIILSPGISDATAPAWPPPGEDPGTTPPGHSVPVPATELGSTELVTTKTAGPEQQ
As to the kind of experiment: cell-based or functional assay.

Assay [2] deals with T1, human BAFFR on HEK-293T-BAFFR cells. In words: flow cytometry on HEK-293T-BAFFR cells, anti-human Fc-647 secondary. Here is the method:
The cells were resuspended in a suitable volume of staining solution for flow cytometry, so that the final cell concentration per tube reached 2×10⁵ cells/mL.
The antibodies NB467-55, NB467-46, NB467-35, and NB467-8 produced in Example 1, and Lanalumab were respectively diluted to 200 nM. […] After incubation, the cells were washed once with a FACS buffer.
The anti-human FC-647 secondary antibody (Jackson, 109-605-003) was diluted according to the instructions, and 100 μl of the diluted secondary antibody was added to a sample tube. After uniform mixing, the system was incubated at 4° C. for 60 min. After incubation, the cells were washed 3 times with FACS, and the cell precipitate obtained by centrifugation was resuspended in 200 μl of PBS and detected by flow cytometry (Sony, SA3800).

Assay [3] deals with human BAFFR-his protein (Acro, BAR-HP2H6) (human) (UniProt Q96RJ3). In words: competition ELISA; plate-coated human BAFFR-his, competitor biotin human BAFF his at 0.2 ug/mL.
Assay [4] has as its target T2, human BAFFR-his protein (Acro, BAR-HP2H6) (human, UniProt Q96RJ3 7-71, limits assumed).
T2 construct: Bought protein; not shown: his tag
T2 sequence: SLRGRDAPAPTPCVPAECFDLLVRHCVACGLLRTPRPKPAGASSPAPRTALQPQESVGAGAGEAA
The assay is described as above. Here is the method: Specifically, human BAFFR-his protein (Acro, BAR-HP2H6) was added to a 96-well microplate at 200 ng/well and incubated at 4° C. overnight. On the following day, the plate was washed 3 times with PBST. Then the plate was blocked with 5% w/v skim milk in PBST at 37° C. for 1 h, and then washed with PBS.
The antibody to be tested was 1:3 diluted over gradients from a concentration of 800 nM (diluted with 5% skim milk). Biotin Human BAFF his protein (Acro, BAF-H82Q2) was diluted to 0.2 μg/mL. Control group: 50 μL of diluted Biotin Human BAFF his protein and 50 μL of 5% milk. Experimental group: 50 μL of diluted Biotin Human BAFF his protein and 50 μL of antibody diluted over gradients.
Then, the antibody/Biotin Human BAFF his mixture was added to a plate coated with Human BAFFR-his protein, and incubated at 37° C. for 1 h. The plate was washed 5 times with PBST. The secondary antibody (Chengdu NBbiolab Biotechnology Co., Ltd.) 1:10K diluted with a blocking solution was added and incubate at 37° C. for 1 h. The plate incubated with the secondary antibody was washed 5 times with PBST. 100 μl of a TMB monocomponent developing solution was added to each well, and incubated at 37° C. for 7 min. The reaction was terminated with 50 μL/well of 1 M HCL, and then the absorption value at 450 nm was determined. The median inhibition concentration (IC50 value) was obtained by analyzing the data with Graphpad Prism software.

In the case of Lanalumab (antibody), the EC50 (ng/ml), ADCC reporter assay (Jurkat-NFAT-CD16a luciferase) in assay [1] is 56.5 ng/mL. Also, in assay [2], the EC50 (as a rule, the concentration that produces a half-maximal response) was determined as 3.58 nM. Further, the IC50 (commonly the concentration at which inhibition is half-maximal) in assay [3] is 310 nM.

B1: NB467-35 (Fc fusion)
chain: QVQLVESGGGLVQPGGSLRLSCAASGFSLEYYAIGWFRQTPGKEREAISCIDSPAKSTYYADSVKGRFTISRDNSKNTVYLQMNSLKAEDTAVYYCAADVYYRGSYLYRSCNPTESKYWGQGTQVTVSS
notes: also called nanobody NB467-35; anti-BAFFR nanobody; not shown: Human IgG1 Fc fused to the VHH
Consider B1, for which the “EC50 (ng/ml), ADCC reporter assay (Jurkat-NFAT-CD16a luciferase)” value (“EC50 (ng/ml), ADCC reporter assay” below) in assay [1] worked out at 2.67 ng/mL. The molecule further came in with an EC50 in assay [2] of 3.24 nM. Further, the IC50 in assay [4] amounted to 5.13 nM.

B2: NB467-55 (Fc fusion)
chain: EVQVVESGGDLVQPGGSLKLSCQASGFSLTYYAIGWFRQAPGKEREEISCISGDGGMTYYADPVKGRFTISRDNGRNTVYLQMNSLKPEDTAVYYCAADVYYNGNYYSRSCNPAESKYWGQGTQVTVSA
notes: also called nanobody NB467-55; anti-BAFFR nanobody; not shown: Human IgG1 Fc fused to the VHH
On to B2, for which, in assay [1], the “EC50 (ng/ml), ADCC reporter assay” value came to 5.09 ng/mL. Further, in assay [2], a half-maximal response (EC50) required 1.55 nM. This molecule displayed a half-inhibitory concentration (IC50) in assay [4] of 40.5 nM.

B3: NB467-46 (Fc fusion)
chain: EVQVVESGGGLVQPGGSLRLSCAASGFSLTYYAIGWFRQAPGKEREGVACISGGGDQLYYTDSVKGRFTISRDNAKNTVYLHMNSLKPEDTAVYYCAADVYYSGSYNYRSCNPAESKYWGQGTQVTVSS
notes: also called nanobody NB467-46; anti-BAFFR nanobody; not shown: Human IgG1 Fc fused to the VHH
Take B3: in assay [1], the “EC50 (ng/ml), ADCC reporter assay” value is 4.55 ng/mL. The same molecule showed a half-maximal effective concentration (EC50) in assay [2] of 1.55 nM. Also, the IC50 in assay [4] was 30.5 nM.

B4: NB467-8 (Fc fusion)
chain: QVQLVESGGGLVQPGGSLRLSCAASGFSLEYYAIGWFRHIPGKEREAVSCISSPGDSTWYVDSVKGRFTISRDNAKNTVYLQMNSLKPEDTAVYHCAADVYYSGSYLSRSCNPHESKYWGQGTQVTVSS
notes: also called nanobody NB467-8; anti-BAFFR nanobody; not shown: Human IgG1 Fc fused to the VHH
In the case of B4, the “EC50 (ng/ml), ADCC reporter assay” value in assay [1] was 2.89 ng/mL. In addition, the EC50 in assay [2] was 1.76 nM. In addition, the half-maximal inhibitory concentration (IC50) in assay [4] is 30.5 nM.
